From publication PMC10937945

Molecular target: HTNV-L (full-length Hantaan virus polymerase, L protein) (Hantaan virus (strain 76-118/Korean …, UniProt P23456 1-2151))
Assay: cryo-EM; 30 mM HEPES pH 8, 250 mM NaCl, 5 mM TCEP ([…]; temperature not stated
Conditions: protein: recombinant; tags: N-terminal His6

Chain of HTNV-L (full-length Hantaan virus polymerase, L protein) (Hantaan virus (P23456 whole entry): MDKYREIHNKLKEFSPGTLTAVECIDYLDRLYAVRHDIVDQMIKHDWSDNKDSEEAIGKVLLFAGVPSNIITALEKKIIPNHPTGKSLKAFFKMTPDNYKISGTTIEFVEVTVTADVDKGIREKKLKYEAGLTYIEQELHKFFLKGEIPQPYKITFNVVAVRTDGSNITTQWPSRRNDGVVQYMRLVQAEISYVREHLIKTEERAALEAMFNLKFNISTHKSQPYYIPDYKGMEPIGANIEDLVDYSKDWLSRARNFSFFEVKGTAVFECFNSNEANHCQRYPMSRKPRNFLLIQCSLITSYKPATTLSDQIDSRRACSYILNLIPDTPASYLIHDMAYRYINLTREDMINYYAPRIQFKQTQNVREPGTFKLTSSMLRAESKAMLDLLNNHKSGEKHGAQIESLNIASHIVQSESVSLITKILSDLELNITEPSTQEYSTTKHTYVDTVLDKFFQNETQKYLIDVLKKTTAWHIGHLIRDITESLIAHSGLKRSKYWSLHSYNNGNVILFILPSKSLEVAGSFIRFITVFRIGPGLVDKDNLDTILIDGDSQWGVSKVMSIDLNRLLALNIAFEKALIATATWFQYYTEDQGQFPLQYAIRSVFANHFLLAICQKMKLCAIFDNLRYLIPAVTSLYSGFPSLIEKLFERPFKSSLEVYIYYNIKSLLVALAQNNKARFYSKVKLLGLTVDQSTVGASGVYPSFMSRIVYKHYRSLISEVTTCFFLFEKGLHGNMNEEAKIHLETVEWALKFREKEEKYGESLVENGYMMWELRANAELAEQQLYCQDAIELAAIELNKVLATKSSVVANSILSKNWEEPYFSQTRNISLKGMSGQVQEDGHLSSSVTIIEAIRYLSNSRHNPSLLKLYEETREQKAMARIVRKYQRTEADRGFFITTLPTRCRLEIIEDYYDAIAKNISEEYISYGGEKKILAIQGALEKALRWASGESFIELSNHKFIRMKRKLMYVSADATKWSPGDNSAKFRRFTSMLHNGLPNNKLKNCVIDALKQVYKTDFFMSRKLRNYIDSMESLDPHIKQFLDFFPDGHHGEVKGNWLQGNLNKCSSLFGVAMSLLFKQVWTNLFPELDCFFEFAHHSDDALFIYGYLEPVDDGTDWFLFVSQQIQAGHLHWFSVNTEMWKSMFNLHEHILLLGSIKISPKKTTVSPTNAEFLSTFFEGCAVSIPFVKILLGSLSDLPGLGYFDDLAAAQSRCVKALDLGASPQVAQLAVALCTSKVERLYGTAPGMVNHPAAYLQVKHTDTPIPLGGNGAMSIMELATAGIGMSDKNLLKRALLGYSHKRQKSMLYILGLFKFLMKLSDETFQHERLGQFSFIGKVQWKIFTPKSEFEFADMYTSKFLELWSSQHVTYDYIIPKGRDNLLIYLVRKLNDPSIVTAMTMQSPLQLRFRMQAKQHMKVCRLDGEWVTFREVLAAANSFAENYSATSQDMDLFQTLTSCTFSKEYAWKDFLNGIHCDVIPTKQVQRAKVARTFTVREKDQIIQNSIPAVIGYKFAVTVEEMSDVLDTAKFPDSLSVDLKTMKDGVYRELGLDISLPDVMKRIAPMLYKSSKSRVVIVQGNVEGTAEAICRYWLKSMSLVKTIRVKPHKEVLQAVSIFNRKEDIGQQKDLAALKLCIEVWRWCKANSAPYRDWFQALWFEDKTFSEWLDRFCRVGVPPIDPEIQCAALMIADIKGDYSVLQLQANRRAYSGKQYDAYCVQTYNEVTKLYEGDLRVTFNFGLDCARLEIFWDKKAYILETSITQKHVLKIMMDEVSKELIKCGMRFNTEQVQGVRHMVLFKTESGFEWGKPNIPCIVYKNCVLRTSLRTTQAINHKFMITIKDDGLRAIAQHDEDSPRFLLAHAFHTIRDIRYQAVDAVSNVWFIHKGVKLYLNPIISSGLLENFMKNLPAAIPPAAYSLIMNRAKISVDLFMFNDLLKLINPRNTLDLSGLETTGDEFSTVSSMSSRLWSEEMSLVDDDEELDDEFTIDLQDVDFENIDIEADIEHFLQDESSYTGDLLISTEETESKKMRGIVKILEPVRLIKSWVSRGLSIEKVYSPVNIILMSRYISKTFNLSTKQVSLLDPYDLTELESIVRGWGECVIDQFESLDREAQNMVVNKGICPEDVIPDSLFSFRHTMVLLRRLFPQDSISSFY

UAGUAGUAGACACCGCAAGAUGUUA (ssRNA) [5'vRNA]
binding result: binds
